B1: dynactin p150^Glued coiled-coil 1B (CC1B), residues 381–530 (domain or fragment, R. norvegicus, UniProt P28023 381-530, looked up)
chain: SSEKQEHVKLQKLMEKKNQELEVVRQQRERLQEELSQAESTIDELKEQVDAALGAEEMVEMLTDRNLNLEEKVRELRETVGDLEAMNEMNDELQENARETELELREQLDMAGARVREAQKRVEAAQETVADYQQTIKKYRQLTAHLQDVN
notes: also called p150^Glued CC1B; source: E. coli BL21 Star (DE3), purified (Ni-NTA, Ulp1 cleavage, HiTrap Q XL, Superdex 75); not shown: His6, N-terminal, cleaved; SMT3 (S. cerevisiae SUMO), N-terminal, cleaved
B2: S. cerevisiae dynein intermediate chain Pac11, residues 1–86, wild type (domain or fragment, UniProt P40960 1-86, looked up)
chain: MERLKQLEEKRRQLKELRERRKQASLFPGSETMGHHPTEVHAKATMVSVSVQTDMEEGSKIQEPQSAYLRRKEVITYDKGIQTDQI
notes: S. cerevisiae dynein intermediate chain Pac11, residues 1-86; Cloned in pGEX 6P-3; also called wt-Pac11^1–86; Pac11 1–86; source: E. coli BL21 Star (DE3), purified (Glutathione Sepharose 4B, precision protease, Superdex 75)
B3: dynactin p150^Glued coiled-coil 1A (CC1A), residues 204–348 (domain or fragment, R. norvegicus, UniProt P28023 204-348, looked up)
chain: PGAAPPLPSPSKEEEGLRDQVRDLEEKLETLRLKRSEDKAKLKELEKHKIQLEQVQEWKSKMQEQQADLQRRLKEAKEAKEALEAKERYMEEMADTADAIEMATLDKEMAEERAESLQQEVEALKERVDELTTDLEILKAEIEEK
notes: R. norvegicus dynactin p150Glued, residues 204-348; Dimer at 4°C by sedimentation equilibrium; source: E. coli BL21 Star (DE3), purified (Ni-NTA, Ulp1 cleavage, HiTrap Q XL, Superdex 75); not shown: His6, N-terminal, cleaved; SMT3 (S. cerevisiae SUMO), N-terminal, cleaved
B4: p150^Glued CC2 (residues 928–1049) (domain or fragment, rat (numbering stated as rat, p-0002), UniProt P28023 928-1049, looked up)
chain: AALRAEITDAEGLGLKLEDRETVIKELKKSLKIKGEELSEANVRLSLLEKKLDSAAKDADERIEKVQTRLEETQTLLRKKEKEFEETMDALQADIDQLEAEKTELKQRLNSQSKRTIEGLRG
notes: Unpublished observation of the authors

What was measured:
[1] = target: the molecule itself; assay: AUC; sedimentation equilibrium of the p150Glued fragments alone, 4°C, 1x PBS, 1 mM TCEP; monomer-dimer model (dimer to monomers)
[2] = target: B1; assay: native gel or EMSA; native PAGE; purified proteins incubated at 25°C for five minutes in equimolar or two fold molar excess; 12% gels with a stacking gel at pH 7.4 or 8–25% gradient gels; details: both partners purified
[3] = target: the molecule itself; assay: not stated; unpublished observation

Binder | Kd [1] | stoichiometry N [1] | binding result [2] | stoichiometry N [3]
B1 | < 60 nM | 2 |  | 
B2 |  |  | binds | 
B3 | < 40 nM | 2 |  | 
B4 |  |  |  | 2

From article PMC3618186, “Dynein and Dynactin Leverage Their Bivalent Character to Form a High-Affinity Interaction” (PLoS ONE, 2013)
